Test [1] addresses T1, glucocorticoid receptor (Mesocricetus auratus, UniProt A0A1U8BQ22).
T1 construct: endogenous in cells; host or cells: SHM (Syrian hamster myocyte) cells
T1 sequence (A0A1U8BQ22 1-774): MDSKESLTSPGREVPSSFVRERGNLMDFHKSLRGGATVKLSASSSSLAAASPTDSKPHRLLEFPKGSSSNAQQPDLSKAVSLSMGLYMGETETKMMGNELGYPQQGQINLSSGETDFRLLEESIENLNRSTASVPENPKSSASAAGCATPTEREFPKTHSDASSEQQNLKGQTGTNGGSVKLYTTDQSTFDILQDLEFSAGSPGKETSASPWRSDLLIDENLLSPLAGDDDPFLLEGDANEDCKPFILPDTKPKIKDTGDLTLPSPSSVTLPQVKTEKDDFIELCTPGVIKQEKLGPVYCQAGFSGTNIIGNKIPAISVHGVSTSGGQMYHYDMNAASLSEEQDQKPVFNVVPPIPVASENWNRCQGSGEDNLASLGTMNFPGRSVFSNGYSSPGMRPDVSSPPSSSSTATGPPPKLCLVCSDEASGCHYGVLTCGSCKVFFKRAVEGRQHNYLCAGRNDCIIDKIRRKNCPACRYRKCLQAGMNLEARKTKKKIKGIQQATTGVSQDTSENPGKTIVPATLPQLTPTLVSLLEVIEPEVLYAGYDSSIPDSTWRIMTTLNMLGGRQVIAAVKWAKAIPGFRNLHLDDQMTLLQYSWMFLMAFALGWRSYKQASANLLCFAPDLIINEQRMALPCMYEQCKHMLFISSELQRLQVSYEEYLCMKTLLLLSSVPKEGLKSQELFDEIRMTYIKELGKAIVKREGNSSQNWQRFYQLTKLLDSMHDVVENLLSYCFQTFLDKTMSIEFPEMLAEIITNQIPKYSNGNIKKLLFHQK
The experiment in a line: Glucocorticoid receptor transactivation in SHM cells, MMTV-Luc reporter. It counts as cell-based. Particulars: 1 nM Dex. As for the experimental part:
Hamster smooth muscle cells (SHM) were transiently transfected with PSF-A expression vector together with a MMTV-Luc reporter vector. Cells were treated with either vehicle or 1 nM Dex for at least 24 hours. Luciferase activities were measured and normalized by β-galactosidase acitvity. Data shown in FIG. 13 are the mean of three separate experiments performed in triplicate ±S.E. Note: the empty vector pcDNA3 was added to the DNA mixture to ensure that the amounts of CMV promoter in all the transfection assays are equal.

Test [2] relates to PRA and PRB protein. Put plainly: PR protein level by western blot of whole cell lysate after co-transfection in SHM cells. It counts as cell-based. The protocol: FIG. 5. […] (A) SHM cells were transient transfected (eighteen hours) with PRA or PRB expression vector with or without increasing doses (0.2, 0.5, 1.0 and 2.0 μg) of His-PSF vector as indicated. Whole cell lysate was analyzed by western blot with PR or His tag antibody. NS=non-specific binding. (B) SHM cells were transient transfected (eighteen hours) with PRA or PRB expression vector together with 2.0 μg His tagged PSF1-707 or truncated PSF1-662. Culture media was added with or without 60 nM MG132 (Z-Leu-Leu-Leu-a1) as indicated for another 6 hours. Whole cell lysate was analyzed by western blot with PR or His tag antibody. Gβ protein was also detected as the cell lysate loading control.
For immunoprecipitation of the endogenous PR and PSF, T47D cells cultured in 150 mm dishes were lysed in 800 μl NETN buffer containing 150 mM NaCl plus protease inhibitor cocktail. Cell lysate were then incubated with 5 μg of PR or PSF, or control mouse IgG at 4° C. overnight, followed by the addition of 30 μl of protein A/G PLUS-agarose beads (Santa Cruz) for another two hours at 4° C. Resins were washed with NETN containing 250 mM NaCl and eluted with 1×Laemmli buffer. The eluted proteins along with the whole cell extract were western blotted by PR or PSF antibody. • GST pulldown assay: GST pulldown assay was performed as previously described (20). GST and its fusion proteins were first immobilized to glutathione-Sepharose 4B affinity matrix. The matrix was then incubated at 4° C. overnight with rabbit reticulocyte lysate (Promega) containing PR or His-PSF transcribed and translated in presence of ^35S methionine. The matrix was washed three times with cold NETN buffer before adding 1 ×Laemmli buffer to elute associated proteins. The eluted proteins were separated on 10% SDS-PAGE gel. Gels were treated with Enhancer (NEN, Boston, US) dried and analyzed by autoradiography. • Cell culture and transient transfection: SHM cells and 293T cells were maintained in DMEM plus 5% FCS (Sigma) as described before (22). For experiments involving steroid exposure, the medium was substituted with phenol red free DMEM containing 5% charcoal-treated fetal bovine serum (Hyclone, Utah, USA). Transfection was performed according to manufacturers protocol (Fementas). Cells were seeded at a density to achieve 60-80% confluency the following day. The DNA and transfection reagent were mixed and added to the medium. Cell lysates were collected at least 30 hours after transfection. For luciferase assay, cells were collected in 200 μl of lysis buffer (Promega) of which 10μl was used for the luciferase and β-Gal activity assays respectively. Luciferase activity was determined by using the luciferin reagent (Promega) according to manufacture's protocol. […]
In general terms: A western blot detects proteins with antibodies after separation by electrophoresis.

B1: polypyrimidine tract binding protein-associated splicing factor (protein)
chain: MSRDRFRSRGGGGGGFHRRGGGGGRGGLHDFRSPPPGMGLNQNRGPMGPGPGQSGPKPPIPPPPPHQQQQQPPPQQPPPQQPPPHQPPPHPQPHQQQQPPPPPQDSSKPVVAQGPGPAPGVGSAPPASSSAPPATPPTSGAPPGSGPGPTPTPPPAVTSAPPGAPPPTPPSSGVPTTPPQAGGPPPPPAAVPGPGPGPKQGPGPGGPKGGKMPGGPKPGGGPGLSTPGGHPKPPHRGGGEPRGGRQHHPPYHQQHHQGPPPGGPGGRSEEKISDSEGFKANLSLLRRPGEKTYTQRCRLFVGNLPADITEDEFKRLFAKYGEPGEVFINKGKGFGFIKLESRALAEIAKAELDDTPMRGRQLRVRFATHAAALSVRNLSPYVSNELLEEAFSQFGPIERAVVIVDDRGRSTGKGIVEFASKPAARKAFERCSEGVFLLTTTPRPVIVEPLEQLDDEDGLPEKLAQKNPMYQKERETPPRFAQHGTFEYEYSQRWKSLDEMEKQQREQVEKNMKDAKDKLESEMEDAYHEHQANLLRQDLMRRQEELRRMEELHNQEMQKRKEMQLRQEEERRRREEEMMIRQREMEEQMRRQREESYSRMGYMDPRERDMRMGGGGAMNMGDPYGSGGQKFPPLGGGGGIGYEANPGVPPATMSGSMMGSDMRTERFGQGGAGPVGGQGPRGMGPGTPAGYGRGREEYEGPNKKPRF
notes: expressed from transfected His-PSF vector or in vitro translated
Turning to B1, the “glucocorticoid receptor activation of the MMTV promoter” value in test [1] is “blocks its activation of the MMTV promoter”. The “PR proteins after co-transfection with PRB/PRA” value in test [2] (after 24 hours) is “total loss of PR proteins”. Further, the “level of PRA and PRB protein” value in test [2] (increasing dose of PSF expression vector, constant dose of PR vector) was “decrease”.

Values taken from patent publication US20070286806A1, “Methods and Compositions for Modulating a Steroid Receptor” (Mount Sinai Hospital, priority 2004, published 2007).
